Data set [1] addresses T1, GluLm (Limosilactobacillus mucosae, UniProt A0A508YIL6).
T1 construct: gene bglB; full-length, C-terminal poly-His tag (pLATE31), expressed in E. coli BL21(DE3), GraviTrap purified, 81 kDa
T1 sequence (A0A508YIL6 1-735): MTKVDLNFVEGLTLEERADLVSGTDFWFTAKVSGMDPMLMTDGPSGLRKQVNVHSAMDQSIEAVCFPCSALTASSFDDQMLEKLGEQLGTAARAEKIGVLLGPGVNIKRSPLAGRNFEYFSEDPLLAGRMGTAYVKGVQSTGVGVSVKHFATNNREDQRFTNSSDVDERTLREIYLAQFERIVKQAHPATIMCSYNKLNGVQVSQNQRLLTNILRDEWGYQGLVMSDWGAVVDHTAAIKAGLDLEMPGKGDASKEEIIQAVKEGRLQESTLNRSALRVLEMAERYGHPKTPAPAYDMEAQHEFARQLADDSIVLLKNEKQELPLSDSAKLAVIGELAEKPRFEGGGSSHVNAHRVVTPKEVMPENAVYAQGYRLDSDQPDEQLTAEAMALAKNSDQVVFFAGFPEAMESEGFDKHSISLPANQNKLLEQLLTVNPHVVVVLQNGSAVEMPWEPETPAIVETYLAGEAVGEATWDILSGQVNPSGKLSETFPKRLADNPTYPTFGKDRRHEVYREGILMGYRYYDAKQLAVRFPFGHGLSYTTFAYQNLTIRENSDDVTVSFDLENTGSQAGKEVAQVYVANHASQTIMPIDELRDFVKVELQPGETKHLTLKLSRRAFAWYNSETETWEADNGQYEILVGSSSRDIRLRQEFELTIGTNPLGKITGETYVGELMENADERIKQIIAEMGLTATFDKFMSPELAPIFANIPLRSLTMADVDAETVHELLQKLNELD
Put plainly: inhibition of pNPG hydrolysis, p-nitrophenol release at […] nm. The data set is classed as biochemical. Conditions: 100000 µM; free enzyme; 1 mmol L^−1 pNPG; 100 mmol L^−1 sodium phosphate pH 6.5; 37°C; 5 min.

Substrate in data set [2]: O=[N+]([O-])c1ccc(O[C@@H]2OC[C@@H](O)[C@H](O)[C@H]2O)cc1
Briefly: purified protein. The data set is classed as biochemical, Limosilactobacillus mucosae. Conditions: free enzyme; 0.1 to 10 mmol L^−1 substrate; pH and temperature not restated for kinetics.

Substrate in data set [3]: O=[N+]([O-])c1ccc(O[C@@H]2O[C@H](CO)[C@@H](O)[C@H](O)[C@H]2O)cc1
Briefly: purified protein. Format: biochemical, Limosilactobacillus mucosae. Conditions: free enzyme; 0.1 to 10 mmol L^−1 substrate; pH and temperature not restated for kinetics.

Substrate in data set [4]: C[C@@H]1O[C@@H](Oc2ccc([N+](=O)[O-])cc2)[C@@H](O)[C@H](O)[C@@H]1O
Briefly: purified protein. The data set is classed as biochemical, Limosilactobacillus mucosae. Conditions: free enzyme; 0.1 to 10 mmol L^−1 substrate; pH and temperature not restated for kinetics.

Substrate in data set [5]: O=[N+]([O-])c1ccc(O[C@@H]2O[C@H](CO)[C@H](O)[C@H](O)[C@H]2O)cc1
Put plainly: purified protein. Format: biochemical, Limosilactobacillus mucosae. Conditions: free enzyme; 0.1 to 10 mmol L^−1 substrate; pH and temperature not restated for kinetics.

Substrate in data set [6]: C[C@H]1O[C@@H](Oc2ccc([N+](=O)[O-])cc2)[C@H](O)[C@@H](O)[C@H]1O
Briefly: purified protein. The data set is classed as biochemical, Limosilactobacillus mucosae. Conditions: free enzyme; 0.1 to 10 mmol L^−1 substrate; pH and temperature not restated for kinetics.

`OC[C@H]1OC(O)[C@H](O)[C@@H](O)[C@@H]1O` (stereo partly drawn) [glucose]: the “Relative activity (%)” value in data set [1] is 48.3 ± 5.7%.

B1: GluLm (Limosilactobacillus mucosae) (protein)
chain: MTKVDLNFVEGLTLEERADLVSGTDFWFTAKVSGMDPMLMTDGPSGLRKQVNVHSAMDQSIEAVCFPCSALTASSFDDQMLEKLGEQLGTAARAEKIGVLLGPGVNIKRSPLAGRNFEYFSEDPLLAGRMGTAYVKGVQSTGVGVSVKHFATNNREDQRFTNSSDVDERTLREIYLAQFERIVKQAHPATIMCSYNKLNGVQVSQNQRLLTNILRDEWGYQGLVMSDWGAVVDHTAAIKAGLDLEMPGKGDASKEEIIQAVKEGRLQESTLNRSALRVLEMAERYGHPKTPAPAYDMEAQHEFARQLADDSIVLLKNEKQELPLSDSAKLAVIGELAEKPRFEGGGSSHVNAHRVVTPKEVMPENAVYAQGYRLDSDQPDEQLTAEAMALAKNSDQVVFFAGFPEAMESEGFDKHSISLPANQNKLLEQLLTVNPHVVVVLQNGSAVEMPWEPETPAIVETYLAGEAVGEATWDILSGQVNPSGKLSETFPKRLADNPTYPTFGKDRRHEVYREGILMGYRYYDAKQLAVRFPFGHGLSYTTFAYQNLTIRENSDDVTVSFDLENTGSQAGKEVAQVYVANHASQTIMPIDELRDFVKVELQPGETKHLTLKLSRRAFAWYNSETETWEADNGQYEILVGSSSRDIRLRQEFELTIGTNPLGKITGETYVGELMENADERIKQIIAEMGLTATFDKFMSPELAPIFANIPLRSLTMADVDAETVHELLQKLNELD
notes: full-length, C-terminal poly-His tag (pLATE31), expressed in E. coli BL21(DE3), GraviTrap purified, 81 kDa
Usually Km stands for the concentration of substrate that gives half-maximal velocity. Broadly, the Vmax is the rate approached at saturating substrate. The term kcat denotes the number of substrate molecules converted per active site and unit of time at saturation. The term kcat/Km denotes the second-order rate constant that governs catalysis at low substrate concentration. Take B1: the Km stood at 760 ± 50 µM in data set [2]; 100 ± 10 µM in data set [3]; 2820 ± 240 µM in data set [4]; 2810 ± 180 µM in data set [5]; 1030 ± 40 µM in data set [6]. Besides, the Vmax turned out to be 4.07 µmol/min in data set [2]; 33.8 µmol/min in data set [3]; 0.06 µmol/min in data set [4]; 0.86 µmol/min in data set [5]; 1.64 µmol/min in data set [6]. In addition, the kcat amounted to 552 s⁻¹ in data set [2]; 9120 s⁻¹ in data set [3]; 7.8 s⁻¹ in data set [4]; 117 s⁻¹ in data set [5]; 223 s⁻¹ in data set [6]. The kcat/Km worked out at 729000 M⁻¹ s⁻¹ in data set [2]; 8.66e+07 M⁻¹ s⁻¹ in data set [3]; 2700 M⁻¹ s⁻¹ in data set [4]; 41900 M⁻¹ s⁻¹ in data set [5]; 218000 M⁻¹ s⁻¹ in data set [6].

The values are drawn from paper PMC10774645, “Characterization and stabilization of GluLm and its application to deglycosylate dietary flavonoids and lignans” (Applied Microbiology and Biotechnology, 2024).
